Measurements taken from patent US20230313180A1.
Read-outs that look alike come from different tables or passages of the source.

B1: (Nb1N)3, homotrimer of Nb1 (VHH72) with Tet3.0 at the N-terminal position, joined by the 3-armed Tri-sTCO PEG linker (VHH)
VHH: SGTGSQVQLQESGGGLVQAGGSLRLSCAASGRTFSEYAMGWFRQAPGKEREFVATISWSGGSTYYTDSVKGRFTISRDNAKNTVYLQMNSLKPDDTAVYYCAAAGLGTVVSEWDYDYYLDYWGQGTQVTVSS
modifications: not checked
B2: (Nb1N)2, homodimer of Nb1 (VHH72) with Tet3.0 at the N-terminal position, joined by the 2-headed sTCO (PEG)12 linker (VHH)
VHH: B1 VHH
modifications: not checked
B3: (Nb142)2, homodimer of Nb1 (VHH72) with Tet3.0 at framework position Gly42, joined by the 2-headed sTCO (PEG)12 linker (VHH)
VHH: QVQLQESGGGLVQAGGSLRLSCAASGRTFSEYAMGWFRQAPGKEREFVATISWSGGSTYYTDSVKGRFTISRDNAKNTVYLQMNSLKPDDTAVYYCAAAGLGTVVSEWDYDYYLDYWGQGTQVTVSS
modifications: not checked
B4: (Nb113)2, homodimer of Nb1 (VHH72) with Tet3.0 at framework position Gln13, joined by the 2-headed sTCO (PEG)12 linker (VHH)
VHH: B3 VHH
modifications: not checked
B5: (Nb1C)2, homodimer of Nb1 (VHH72) with Tet3.0 at the C-terminus, joined by the 2-headed sTCO (PEG)12 linker (VHH)
VHH: B3 VHH
modifications: not checked

Assays:
[1] = target: SARS-CoV-2-RBD tagged with a C-terminal Fc tag (ACRO Biosystems) (SARS-CoV-2) (UniProt P0DTC2); assay: BLI, immobilized SARS-CoV-2 RBD
[2] = target: SARS-CoV-2-RBD tagged with a C-terminal Fc tag (ACRO Biosystems) (SARS-CoV-2) (UniProt P0DTC2)
[3] = target: T1, SARS-CoV-2-RBD tagged with a C-terminal Fc tag (ACRO Biosystems) (SARS-CoV-2), P0DTC2; assay: BLI, immobilized SARS-CoV-2 RBD; reference Nb1-Nb1 genetic dimer
[4] = target: T1, SARS-CoV-2-RBD tagged with a C-terminal …
[5] = target: T1, SARS-CoV-2-RBD tagged with a C-terminal …; assay: BLI, immobilized SARS-CoV-2 RBD; reference (Nb1N)2
[6] = target: T1, SARS-CoV-2-RBD tagged with a C-terminal …; remark: listed apart in the source

Row | Molecule | Kd [6] [nM] | koff [6] [s⁻¹] | kon [6] [M⁻¹ s⁻¹] | fold tighter binding than Nb1-Nb1 [3] [fold] | also measured
1 | Nb1-Nb1, genetically linked "tail to head" dimer of Nb1 (VHH72) | – | – | – | – | Kd [1]: 88 nM; Kd [2]: 89 nM; koff [2]: 0.00314 s⁻¹; kon [2]: 35400 M⁻¹ s⁻¹
2 | B1 | – | – | – | – | fold tighter KD than the genetic dimer Nb1-Nb1 [3]: 44 fold; Kd [4]: 2.31 nM; koff [4]: 0.000566 s⁻¹; kon [4]: 246000 M⁻¹ s⁻¹; fold larger kon than (Nb1N)2 [5]: 3 fold; fold smaller koff than (Nb1N)2 [5]: 2 fold; fold tighter KD than (Nb1N)2 [5]: 6 fold
3 | B2 | 13.8 | 0.00119 | 85800 | 7 | –
4 | B3 | 27.5 | 0.00201 | 73100 | 3 | –
5 | B4 | 46 | 0.00156 | 33800 | – | –
6 | B5 | 132 | 0.0064 | 48100 | – | fold weaker binding than Nb1-Nb1 [3]: 1.5 fold
